Data published in article doi:10.1101/2021.06.07.447357.
Where two headings read alike, the source gives them in different places.

How the values were obtained:
[1] = biological target: 31 kDa recombinant Tic40s form (Brassica napus); assay: dynamic light scattering
[2] = biological target: 31 kDa recombinant Tic40s form (Brassica napus); assay: dynamic light scattering; remark: listed apart in the source
[3] = biological target: Recombinant Tic40s with a carboxyl-terminal histidine tag (40 kDa form) (Brassica napus); assay: AUC
[4] = biological target: Recombinant Tic40s with a carboxyl-terminal histidine tag (40 kDa form) (Brassica napus); assay: AUC; remark: listed apart in the source

stoichiometry N [1] | stoichiometry N [2] | stoichiometry N [3] | stoichiometry N [4] | Substance
2 | 4 |  |  | 31 kDa recombinant Tic40s form (domain or fragment)
 |  | 4 | 3 | Recombinant Tic40s with a carboxyl-terminal histidine tag (40 kDa form) (domain or fragment)
